Laboratory results reported in patent US20200087373A1 (UNIVERSITY OF COPENHAGEN, published 2020).
Ends that are not written are not given here. * marks the point of attachment. C16 diacid = O=C(O)CCCCCCCCCCCCCCC(=O)*

T1: human GIP receptor (human, UniProt P48546 22-466)
T1 sequence (looked up): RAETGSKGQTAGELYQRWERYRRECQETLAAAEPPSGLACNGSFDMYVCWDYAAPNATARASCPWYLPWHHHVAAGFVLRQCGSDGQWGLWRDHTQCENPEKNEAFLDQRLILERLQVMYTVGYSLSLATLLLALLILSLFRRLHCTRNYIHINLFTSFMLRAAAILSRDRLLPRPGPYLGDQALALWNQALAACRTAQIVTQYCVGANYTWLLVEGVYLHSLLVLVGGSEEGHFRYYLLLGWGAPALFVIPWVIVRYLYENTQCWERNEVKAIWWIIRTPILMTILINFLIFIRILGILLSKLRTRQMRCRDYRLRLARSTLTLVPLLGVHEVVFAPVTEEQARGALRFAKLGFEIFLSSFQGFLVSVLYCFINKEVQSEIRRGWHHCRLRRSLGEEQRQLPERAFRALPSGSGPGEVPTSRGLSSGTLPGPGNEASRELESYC

B1: AT312 [hGIP(3-30)NH2[V23K]-C16diacid/23] (peptide)
peptide: EGTFISDYSIAMDKIHQQDFK(C16 diacid)NWLLAQK-NH2
modifications: N-terminus assumed
SMILES: CC[C@H](C)[C@H](NC(=O)[C@H](CO)NC(=O)[C@H](Cc1ccc(O)cc1)NC(=O)[C@H](CC(=O)O)NC(=O)[C@H](CO)NC(=O)[C@@H](NC(=O)[C@H](Cc1ccccc1)NC(=O)[C@@H](NC(=O)CNC(=O)[C@@H](N)CCC(=O)O)[C@@H](C)O)[C@@H](C)CC)C(=O)N[C@@H](C)C(=O)N[C@@H](CCSC)C(=O)N[C@@H](CC(=O)O)C(=O)N[C@@H](CCCCN)C(=O)N[C@H](C(=O)N[C@@H](Cc1c[nH]cn1)C(=O)N[C@@H](CCC(N)=O)C(=O)N[C@@H](CCC(N)=O)C(=O)N[C@@H](CC(=O)O)C(=O)N[C@@H](Cc1ccccc1)C(=O)N[C@@H](CCCCNC(=O)CCCCCCCCCCCCCCC(=O)O)C(=O)N[C@@H](CC(N)=O)C(=O)N[C@@H](Cc1c[nH]c2ccccc12)C(=O)N[C@@H](CC(C)C)C(=O)N[C@@H](CC(C)C)C(=O)N[C@@H](C)C(=O)N[C@@H](CCC(N)=O)C(=O)N[C@@H](CCCCN)C(N)=O)[C@@H](C)CC
B2: AT313 [hGIP(3-30)NH2[N24K]-C16diacid/24] (peptide)
peptide: EGTFISDYSIAMDKIHQQDFVK(C16 diacid)WLLAQK-NH2
modifications: N-terminus assumed
SMILES: CC[C@H](C)[C@H](NC(=O)[C@H](CO)NC(=O)[C@H](Cc1ccc(O)cc1)NC(=O)[C@H](CC(=O)O)NC(=O)[C@H](CO)NC(=O)[C@@H](NC(=O)[C@H](Cc1ccccc1)NC(=O)[C@@H](NC(=O)CNC(=O)[C@@H](N)CCC(=O)O)[C@@H](C)O)[C@@H](C)CC)C(=O)N[C@@H](C)C(=O)N[C@@H](CCSC)C(=O)N[C@@H](CC(=O)O)C(=O)N[C@@H](CCCCN)C(=O)N[C@H](C(=O)N[C@@H](Cc1c[nH]cn1)C(=O)N[C@@H](CCC(N)=O)C(=O)N[C@@H](CCC(N)=O)C(=O)N[C@@H](CC(=O)O)C(=O)N[C@@H](Cc1ccccc1)C(=O)N[C@H](C(=O)N[C@@H](CCCCNC(=O)CCCCCCCCCCCCCCC(=O)O)C(=O)N[C@@H](Cc1c[nH]c2ccccc12)C(=O)N[C@@H](CC(C)C)C(=O)N[C@@H](CC(C)C)C(=O)N[C@@H](C)C(=O)N[C@@H](CCC(N)=O)C(=O)N[C@@H](CCCCN)C(N)=O)C(C)C)[C@@H](C)CC
B3: AT310 [hGIP(3-30)NH2[D21K]-C16diacid/21] (peptide)
peptide: EGTFISDYSIAMDKIHQQK(C16 diacid)FVNWLLAQK-NH2
modifications: N-terminus assumed
SMILES: CC[C@H](C)[C@H](NC(=O)[C@H](CO)NC(=O)[C@H](Cc1ccc(O)cc1)NC(=O)[C@H](CC(=O)O)NC(=O)[C@H](CO)NC(=O)[C@@H](NC(=O)[C@H](Cc1ccccc1)NC(=O)[C@@H](NC(=O)CNC(=O)[C@@H](N)CCC(=O)O)[C@@H](C)O)[C@@H](C)CC)C(=O)N[C@@H](C)C(=O)N[C@@H](CCSC)C(=O)N[C@@H](CC(=O)O)C(=O)N[C@@H](CCCCN)C(=O)N[C@H](C(=O)N[C@@H](Cc1c[nH]cn1)C(=O)N[C@@H](CCC(N)=O)C(=O)N[C@@H](CCC(N)=O)C(=O)N[C@@H](CCCCNC(=O)CCCCCCCCCCCCCCC(=O)O)C(=O)N[C@@H](Cc1ccccc1)C(=O)N[C@H](C(=O)N[C@@H](CC(N)=O)C(=O)N[C@@H](Cc1c[nH]c2ccccc12)C(=O)N[C@@H](CC(C)C)C(=O)N[C@@H](CC(C)C)C(=O)N[C@@H](C)C(=O)N[C@@H](CCC(N)=O)C(=O)N[C@@H](CCCCN)C(N)=O)C(C)C)[C@@H](C)CC
B4: AT314 [hGIP(3-30)NH2[W25K]-C16diacid/25] (peptide)
peptide: EGTFISDYSIAMDKIHQQDFVNK(C16 diacid)LLAQK-NH2
modifications: N-terminus assumed
SMILES: CC[C@H](C)[C@H](NC(=O)[C@H](CO)NC(=O)[C@H](Cc1ccc(O)cc1)NC(=O)[C@H](CC(=O)O)NC(=O)[C@H](CO)NC(=O)[C@@H](NC(=O)[C@H](Cc1ccccc1)NC(=O)[C@@H](NC(=O)CNC(=O)[C@@H](N)CCC(=O)O)[C@@H](C)O)[C@@H](C)CC)C(=O)N[C@@H](C)C(=O)N[C@@H](CCSC)C(=O)N[C@@H](CC(=O)O)C(=O)N[C@@H](CCCCN)C(=O)N[C@H](C(=O)N[C@@H](Cc1c[nH]cn1)C(=O)N[C@@H](CCC(N)=O)C(=O)N[C@@H](CCC(N)=O)C(=O)N[C@@H](CC(=O)O)C(=O)N[C@@H](Cc1ccccc1)C(=O)N[C@H](C(=O)N[C@@H](CC(N)=O)C(=O)N[C@@H](CCCCNC(=O)CCCCCCCCCCCCCCC(=O)O)C(=O)N[C@@H](CC(C)C)C(=O)N[C@@H](CC(C)C)C(=O)N[C@@H](C)C(=O)N[C@@H](CCC(N)=O)C(=O)N[C@@H](CCCCN)C(N)=O)C(C)C)[C@@H](C)CC
B5: AT311 [hGIP(3-30)NH2[F22K]-C16diacid/22] (peptide)
peptide: EGTFISDYSIAMDKIHQQDK(C16 diacid)VNWLLAQK-NH2
modifications: N-terminus assumed
SMILES: CC[C@H](C)[C@H](NC(=O)[C@H](CO)NC(=O)[C@H](Cc1ccc(O)cc1)NC(=O)[C@H](CC(=O)O)NC(=O)[C@H](CO)NC(=O)[C@@H](NC(=O)[C@H](Cc1ccccc1)NC(=O)[C@@H](NC(=O)CNC(=O)[C@@H](N)CCC(=O)O)[C@@H](C)O)[C@@H](C)CC)C(=O)N[C@@H](C)C(=O)N[C@@H](CCSC)C(=O)N[C@@H](CC(=O)O)C(=O)N[C@@H](CCCCN)C(=O)N[C@H](C(=O)N[C@@H](Cc1c[nH]cn1)C(=O)N[C@@H](CCC(N)=O)C(=O)N[C@@H](CCC(N)=O)C(=O)N[C@@H](CC(=O)O)C(=O)N[C@@H](CCCCNC(=O)CCCCCCCCCCCCCCC(=O)O)C(=O)N[C@H](C(=O)N[C@@H](CC(N)=O)C(=O)N[C@@H](Cc1c[nH]c2ccccc12)C(=O)N[C@@H](CC(C)C)C(=O)N[C@@H](CC(C)C)C(=O)N[C@@H](C)C(=O)N[C@@H](CCC(N)=O)C(=O)N[C@@H](CCCCN)C(N)=O)C(C)C)[C@@H](C)CC

What follows are binders tested against T1, human GIP receptor (assay: cell-based or functional assay).
In the case of B1, the “cAMP agonism, EC50 (log)” value is reported as -5.4 log M, the “cAMP agonism, Emax” value is reported as 54% and the “cAMP agonism, nM (EC50)” value is reported as 4080 nM. B2 was tested, and the “cAMP agonism, EC50 (log)” value was -7 log M, the “cAMP agonism, Emax” value was 7.2% and the “cAMP agonism, nM (EC50)” value was 97 nM. The “cAMP antagonism, log (IC50)” value was -6.5 log M and the “cAMP antagonism, nM (IC50)” value was 348 nM. With B3 the “cAMP agonism, EC50 (log)” value was -7.4 log M, the “cAMP agonism, Emax” value was 6.2% and the “cAMP agonism, nM (EC50)” value was 39 nM. For the same binder, the “cAMP antagonism, log (IC50)” value was -7.3 log M and the “cAMP antagonism, nM (IC50)” value was 49 nM. With B4 the “cAMP agonism, EC50 (log)” value was -7.2 log M, the “cAMP agonism, Emax” value was 28.4% and the “cAMP agonism, nM (EC50)” value was 62 nM. For the same binder, the “cAMP antagonism, log (IC50)” value was -7 log M and the “cAMP antagonism, nM (IC50)” value was 101 nM. B5 was tested, and the “cAMP agonism, EC50 (log)” value was -6.1 log M, the “cAMP agonism, Emax” value was 17.5% and the “cAMP agonism, nM (EC50)” value was 784 nM. The “cAMP antagonism, log (IC50)” value was -6 log M and the “cAMP antagonism, nM (IC50)” value was 923 nM.
